Source: IntAct's records for PubMed 20802536

B1: Frizzled-4 (Homo sapiens), Q9ULV1 (parent)
chain: MAWRGAGPSVPGAPGGVGLSLGLLLQLLLLLGPARGFGDEEERRCDPIRISMCQNLGYNVTKMPNLVGHELQTDAELQLTTFTPLIQYGCSSQLQFFLCSVYVPMCTEKINIPIGPCGGMCLSVKRRCEPVLKEFGFAWPESLNCSKFPPQNDHNHMCMEGPGDEEVPLPHKTPIQPGEECHSVGTNSDQYIWVKRSLNCVLKCGYDAGLYSRSAKEFTDIWMAVWASLCFISTAFTVLTFLIDSSRFSYPERPIIFLSMCYNIYSIAYIVRLTVGRERISCDFEEAAEPVLIQEGLKNTGCAIIFLLMYFFGMASSIWWVILTLTWFLAAGLKWGHEAIEMHSSYFHIAAWAIPAVKTIVILIMRLVDADELTGLCYVGNQNLDALTGFVVAPLFTYLVIGTLFIAAGLVALFKIRSNLQKDGTKTDKLERLMVKIGVFSVLYTVPATCVIACYFYEISNWALFRYSADDSNMAVEMLKIFMSLLVGITSGMWIWSAKTLHTWQKCSNRLVNSGKVKREKRGNGWVKPGKGSETVV
partner: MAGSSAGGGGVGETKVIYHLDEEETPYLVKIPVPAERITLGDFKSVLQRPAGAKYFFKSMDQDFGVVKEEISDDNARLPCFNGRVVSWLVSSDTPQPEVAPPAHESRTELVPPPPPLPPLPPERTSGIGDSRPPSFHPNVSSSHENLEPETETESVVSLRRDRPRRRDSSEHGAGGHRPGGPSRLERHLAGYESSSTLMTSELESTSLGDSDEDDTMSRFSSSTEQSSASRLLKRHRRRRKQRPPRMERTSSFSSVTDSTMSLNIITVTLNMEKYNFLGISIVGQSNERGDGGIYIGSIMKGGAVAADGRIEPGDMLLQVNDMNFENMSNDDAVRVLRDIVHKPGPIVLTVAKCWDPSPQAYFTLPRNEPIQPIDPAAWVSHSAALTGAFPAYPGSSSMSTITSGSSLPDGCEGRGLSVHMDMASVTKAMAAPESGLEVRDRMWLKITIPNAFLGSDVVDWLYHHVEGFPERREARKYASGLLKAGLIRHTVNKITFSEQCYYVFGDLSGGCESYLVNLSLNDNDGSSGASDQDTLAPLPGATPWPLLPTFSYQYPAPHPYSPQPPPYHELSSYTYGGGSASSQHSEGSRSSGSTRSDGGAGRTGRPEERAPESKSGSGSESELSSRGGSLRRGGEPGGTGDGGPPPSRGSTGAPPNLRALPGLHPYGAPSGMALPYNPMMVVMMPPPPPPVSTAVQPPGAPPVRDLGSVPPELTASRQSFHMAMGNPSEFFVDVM
B2: Frizzled-4 (Homo sapiens), Q9ULV1 (parent)
chain: B1 chain
partner: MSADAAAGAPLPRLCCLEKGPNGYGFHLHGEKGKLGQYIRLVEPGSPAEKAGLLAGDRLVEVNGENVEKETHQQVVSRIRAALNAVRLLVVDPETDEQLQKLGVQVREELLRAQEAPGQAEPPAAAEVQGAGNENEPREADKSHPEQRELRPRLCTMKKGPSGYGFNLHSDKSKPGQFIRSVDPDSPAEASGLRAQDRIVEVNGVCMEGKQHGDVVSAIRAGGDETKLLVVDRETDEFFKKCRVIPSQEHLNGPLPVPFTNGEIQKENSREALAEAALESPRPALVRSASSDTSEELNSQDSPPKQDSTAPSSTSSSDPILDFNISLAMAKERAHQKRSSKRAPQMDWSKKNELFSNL

Variants of: B1
Conditions: with dvl2_mouse Dvl2, Q60838

Variant | effect of a mutation on the interaction
V537A | decreasing interaction

Variants of: B2
Conditions: with nhrf1_human NHERF1, O14745

Variant | effect of a mutation on the interaction
V537A | decreasing interaction
